Measured values from US5804688A, “Compounds and compositions for delivering active agents” (Emisphere Technologies, Inc., priority 1997, dated 1998).
Like-named read-outs stand apart in the source and are kept apart here.

How the values were obtained:
[1] = rat, in vivo, 50 mg/kg
Experimental: (§1) Rats were administered, orally and by intracolonic instillation, dosing solutions of 1 mg/kg of interferon and no carrier.

[2] = In vivo interferon delivery in rats (serum interferon, ELISA); settings: 1 mg/kg interferon, no carrier
Experimental: as §1

Row | Compound | Mean peak serum interferon concentration [1] | Mean peak serum interferon concentration ([2]; intracolonic (IC)) | Mean peak serum interferon concentration ([2]; oral (PO))
1 | O=C(O)CCCc1ccc(NC(=O)COc2ccccc2)cc1 [Compound 9] | 2611±695 |  | 
2 | interferon |  | 79±100 | 1951±1857
